Publication PMC11662662

Biological target: H3K23ub mononucleosomes (H3 'K23ub' thioether mimic), P68431;P0CG48;P04908;O60814;P62805
Experiment: Alpha-screen proximity assay

Kd: 140 nM
Substance: recombinant DNMT1 RFTS domain WT (His-MBP-RFTS) (from UniProt P26358) P378A; L381A
